B1: S. cerevisiae Abp1 (full length; SH3 domain 535-592 mutated) / Hua2 (parent complex)
chain 1: MALEPIDYTTHSREIDAEYLKIVRGSDPDTTWLIISPNAKKEYEPESTGSSFHDFLQLFDETKVQYGLARVSPPGSDVEKIIIIGWCPDSAPLKTRASFAANFAAVANNLFKGYHVQVTARDEDDLDENELLMKISNAAGARYSIQTSSKQQGKASTPPVKKSFTPSKSPAPVSKKEPVKTPSPAPAAKISSRVNDNNDDDDWNEPELKERDFDQAPLKPNQSSYKPIGKIDLQKVIAEEKAKEDPRLVQKPTAAGSKIDPSSDIANLKNESKLKRDSEFNSFLGTTKPPSMTESSLKNDDDKVIKGFRNEKSPAQLWAERKAKQNSGNAETKAEAPKPEVPEDEPEGEPDVKDLKSKFEGLAASEKEEEEMENKFAPPPKKSEPTIISPKPFSKPQEPVKAEEAEQPKTDYKKIGNPLPGMHIEADNEEEPEENDDDWDDDEDEAAQPPLPSRNVASGAPVQKEEPEQEEIAPSLPSRNSIPAPKQEEAPEQAPEEEIEEEAEEAAPQLPSRSSAAPPPPPRRATPEKKPKENPWATAEYDYDAAEDNELTFVENDKIINIEFVDDDWWLGELEKDGSKGLFPSNYVSLGN
chain 2: MQQTKFGKMYLDHDSVVEYSEDEIVEADRITLGYKKRLSMIENQMRHLLEDFSLDVQQIEPILADLQKYYDAFLQLLQKRNKSLQCKRSTHQPVPSPMNSQTSTNAKVNLSGKLMKFQLNSVQKFDEENILRILQNKIEFEHYFQIDKGKKQKVLLLAVYQCLNGPTRLHKVLNIEGIIHNNSIRTILGKQVSSSKWTVFLYDVKLVLLAHRQDVPNLETSKMIVRYGDLFPCALYFKDHTAY

Variants of: B1
Test: DHFR protein-fragment complementation in yeast (Abp1-DHFR F[1,2] x partner-DHFR F[3]), deep mutational scanning, second methotrexate selection vs reference; S. cerevisiae, DHFR-PCA selection in liquid with methotrexate at 30 C, two 72 h selections (the score uses the second); reference = the pre-selection culture

Variant | screen value
chain 1 E547D | -0.281 DMS score: mean over two replicates of log2(f_test/f_ref + 0.5)/ln 2, minus the synonymous-codon median (not a log2 …
chain 1 L551M | -0.642 DMS score: mean over two replicates of log2(f_test/f_ref + 0.5)/ln 2, minus the synonymous-codon median (not a log2 …
chain 1 N556G | 0.625 DMS score: mean over two replicates of log2(f_test/f_ref + 0.5)/ln 2, minus the synonymous-codon median (not a log2 …
chain 1 N556C | 0.444 DMS score: mean over two replicates of log2(f_test/f_ref + 0.5)/ln 2, minus the synonymous-codon median (not a log2 …
chain 1 N556D | 0.175 DMS score: mean over two replicates of log2(f_test/f_ref + 0.5)/ln 2, minus the synonymous-codon median (not a log2 …
chain 1 N556T | 0.279 DMS score: mean over two replicates of log2(f_test/f_ref + 0.5)/ln 2, minus the synonymous-codon median (not a log2 …
chain 1 N556A | -0.361 DMS score: mean over two replicates of log2(f_test/f_ref + 0.5)/ln 2, minus the synonymous-codon median (not a log2 …
chain 1 N556Y | 0.313 DMS score: mean over two replicates of log2(f_test/f_ref + 0.5)/ln 2, minus the synonymous-codon median (not a log2 …
chain 1 Y541H | -1.01 DMS score: mean over two replicates of log2(f_test/f_ref + 0.5)/ln 2, minus the synonymous-codon median (not a log2 …
chain 1 Y541E | -1.48 DMS score: mean over two replicates of log2(f_test/f_ref + 0.5)/ln 2, minus the synonymous-codon median (not a log2 …
chain 1 Y541N | -1.91 DMS score: mean over two replicates of log2(f_test/f_ref + 0.5)/ln 2, minus the synonymous-codon median (not a log2 …
chain 1 I560S | -0.964 DMS score: mean over two replicates of log2(f_test/f_ref + 0.5)/ln 2, minus the synonymous-codon median (not a log2 …
chain 1 I560N | -0.729 DMS score: mean over two replicates of log2(f_test/f_ref + 0.5)/ln 2, minus the synonymous-codon median (not a log2 …
chain 1 I560L | -0.196 DMS score: mean over two replicates of log2(f_test/f_ref + 0.5)/ln 2, minus the synonymous-codon median (not a log2 …
chain 1 D566A | -2.64 DMS score: mean over two replicates of log2(f_test/f_ref + 0.5)/ln 2, minus the synonymous-codon median (not a log2 …
chain 1 D566G | -2.66 DMS score: mean over two replicates of log2(f_test/f_ref + 0.5)/ln 2, minus the synonymous-codon median (not a log2 …
chain 1 D566Q | -2.94 DMS score: mean over two replicates of log2(f_test/f_ref + 0.5)/ln 2, minus the synonymous-codon median (not a log2 …
chain 1 S579Q | 0.0179 DMS score: mean over two replicates of log2(f_test/f_ref + 0.5)/ln 2, minus the synonymous-codon median (not a log2 …
chain 1 S579R | 0.286 DMS score: mean over two replicates of log2(f_test/f_ref + 0.5)/ln 2, minus the synonymous-codon median (not a log2 …

Variant | screen value
chain 1 K576Q | -0.814 DMS score: mean over two replicates of log2(f_test/f_ref + 0.5)/ln 2, minus the synonymous-codon median (not a log2 …
chain 1 K576H | -0.301 DMS score: mean over two replicates of log2(f_test/f_ref + 0.5)/ln 2, minus the synonymous-codon median (not a log2 …
chain 1 W536C | -0.449 DMS score: mean over two replicates of log2(f_test/f_ref + 0.5)/ln 2, minus the synonymous-codon median (not a log2 …
chain 1 W536M | -0.26 DMS score: mean over two replicates of log2(f_test/f_ref + 0.5)/ln 2, minus the synonymous-codon median (not a log2 …
chain 1 W536Y | 0.0348 DMS score: mean over two replicates of log2(f_test/f_ref + 0.5)/ln 2, minus the synonymous-codon median (not a log2 …
chain 1 W536Q | -0.538 DMS score: mean over two replicates of log2(f_test/f_ref + 0.5)/ln 2, minus the synonymous-codon median (not a log2 …
chain 1 K580A | -0.331 DMS score: mean over two replicates of log2(f_test/f_ref + 0.5)/ln 2, minus the synonymous-codon median (not a log2 …
chain 1 K580L | -0.907 DMS score: mean over two replicates of log2(f_test/f_ref + 0.5)/ln 2, minus the synonymous-codon median (not a log2 …
chain 1 K580T | 0.165 DMS score: mean over two replicates of log2(f_test/f_ref + 0.5)/ln 2, minus the synonymous-codon median (not a log2 …
chain 1 K580H | -0.129 DMS score: mean over two replicates of log2(f_test/f_ref + 0.5)/ln 2, minus the synonymous-codon median (not a log2 …
chain 1 K580V | 0.0627 DMS score: mean over two replicates of log2(f_test/f_ref + 0.5)/ln 2, minus the synonymous-codon median (not a log2 …
chain 1 K580M | -0.619 DMS score: mean over two replicates of log2(f_test/f_ref + 0.5)/ln 2, minus the synonymous-codon median (not a log2 …
chain 1 K580R | 0.457 DMS score: mean over two replicates of log2(f_test/f_ref + 0.5)/ln 2, minus the synonymous-codon median (not a log2 …
chain 1 F564Q | -1.38 DMS score: mean over two replicates of log2(f_test/f_ref + 0.5)/ln 2, minus the synonymous-codon median (not a log2 …
chain 1 F564H | -2.23 DMS score: mean over two replicates of log2(f_test/f_ref + 0.5)/ln 2, minus the synonymous-codon median (not a log2 …
chain 1 G591N | 0.941 DMS score: mean over two replicates of log2(f_test/f_ref + 0.5)/ln 2, minus the synonymous-codon median (not a log2 …
chain 1 G591A | 0.673 DMS score: mean over two replicates of log2(f_test/f_ref + 0.5)/ln 2, minus the synonymous-codon median (not a log2 …
chain 1 G591T | 0.63 DMS score: mean over two replicates of log2(f_test/f_ref + 0.5)/ln 2, minus the synonymous-codon median (not a log2 …
chain 1 G591W | -0.547 DMS score: mean over two replicates of log2(f_test/f_ref + 0.5)/ln 2, minus the synonymous-codon median (not a log2 …

— article PMC7954794 (2021)
